Assay results as given in article PMC9405506, “Thermostable and O2-Insensitive Pyruvate Decarboxylases from Thermoacidophilic Archaea Catalyzing the Production of Acetaldehyde” (Biology, 2022).

Key:
[1] = substrate: CC(=O)C(=O)O; assay: PDC activity: acetaldehyde by DNPH derivatization and HPLC, Michaelis-Menten fit; format: biochemical, Saccharolobus solfataricus; conditions: PDC (non-oxidative decarboxylation) reaction, 0.1 mM CoA, 100 mM sodium phosphate pH 7.9, 80 °C
Source text: PDC activity: acetaldehyde by DNPH derivatization and HPLC, Michaelis-Menten fit on SsPOR/PDC

purified protein = substrate: CC(=O)C(=O)O; assay: purified protein; format: biochemical, Saccharolobus solfataricus; conditions: POR (oxidative decarboxylation) reaction, 0.1 mM CoA, 1 mM benzyl viologen, 50 µM sodium dithionite, anaerobic, pH 8.0, 80 °C

B1: SsPOR/PDC (Saccharolobus solfataricus) (protein)
chain 1: MRISWMIGGAQGSGVDTSANIFGNAVAASGYYIYGNREYYSNIKGRHSYFNLTISDKPPRSIAQQIEILTSFDAETIFQHFNEVKDVLIYSTEVENTKAEQVQSMEPEITEHVVKFLKEKGYGTTVKDVINYLKKEKGVKVIPIDYMEILKKVADQAKVQLSVADRARNTIAIAASYKLLGLKEQYLINSITRTFRQEVFAKINTIAAQLAMQQIQPMYNLPELPNNEEKINLDGNTAAAIGKIYGGLRFQSYYPITPASDESVFIEAHQTVFTVDPKTGEKRKSTIVVVQAEDELAAINMASGAALTGVRAATATSGPGFSLMVEGMGWAGMNEVPVVITYYIRGGPSTGQPTRTSQADLMFALNAGHGEFPRIVIASGDHVEAFHDGTWALNLAQKYQTPVIHLVDKALANSYSIIPKKTLGMENIRIEKGKIVINTNTPELKRFEITEDGISPFAPLGTARVHYTGDEHDEYGFIAEASENREKMYEKRIKKLMTADKEIPEESRVNVYGNTDSKVAIITWGSPKGAILDAMEELENEGIKPMLIQIRMFSPFPKNLMRKLLNGKEFIIDVESNYFGQAGEVLKLNTGIEPTHYILKWNGRPMMRDEVKEGIKAVVQKGERRVVLHGGA
chain 2: MAGLKVEWNDWCPGCGNFGILSAEQQAIQELGLDPKKVVLVSGIGCSGKIPHFIRLPASGVHTLHGRALTFAIGIKLANPSLEVIVNGGDGDQLGIGVGHFVSAGRRNVDLTVIVHNNGVYGLTKGQASPTLKLGVKTKSLPKPNINSDINPIALAISSGYTFVARGYAYDVKHLKEIIKKAIKHKGLAMIDVLQPCPTYNDIHTKEYYDKRVYKLDEDPSWDPIVKKPEEMDDKMSKAILKSMEWGDRTPIGIFYQNELVSTYEQRIAERSPSYLDNPPAHDVIEFEGKPTTDVEDILKERRVT
notes: native, purified from cells by DEAE-Sepharose, hydroxyapatite and phenyl-Sepharose; heterodimer (alpha-beta), subunits 37 and about 65 kDa
B1 was tested. Which Km [1] did it give?
Its Km is 1100 ± 200 µM.

What about the Vmax [1] of the same protein?
The Vmax was 0.12 µmol/min/mg.

What about the Km (purified protein) of the same protein?
The Km was 500 ± 100 µM.

What about the Vmax (purified protein) of the same protein?
Its Vmax is 6.3 µmol/min/mg.
